Test results as given in article PMC4225772.

B1: tissue factor (TF): TFN11A (protein)
parent chain: METPAWPRVPRPETAVARTLLLGWVFAQVAGASGTTNTVAAYNLTWKSTNFKTILEWEPKPVNQVYTVQISTKSGDWKSKCFYTTDTECDLTDEIVKDVKQTYLARVFSYPAGNVESTGSAGEPLYENSPEFTPYLETNLGQPTIQSFEQVGTKVNVTVEDERTLVRRNNTFLSLRDVFGKDLIYTLYYWKSSSSGKKTAKTNTNEFLIDVDKGENYCFSVQAVIPSRTVNRKSTDSPVECMGQEKGEFREIFYIIGAVVFVVIILVIILAISLHKCRKAGVGQSWKENSPLNVS
B2: tissue factor (TF): tunicamycin (protein)
parent chain: B1 parent chain
B3: tissue factor (TF): TFN11A/N124A (protein)
parent chain: B1 parent chain
B4: tissue factor (TF): TFN11A/N137A (protein)
parent chain: B1 parent chain
B5: tissue factor (TF): TFN11A/N124A/N137A (protein)
parent chain: B1 parent chain
B6: tissue factor (TF): TFN11A/N124A/N137A-GFP (protein)
parent chain: B1 parent chain

Key:
[1] = cell-surface TF antigen, radiolabelled mAb binding, CHO; settings: glycan lost; control: wild-type TF-GFP
[2] = FX activation assay, CHO cell surface; settings: glycan lost; control: wild-type TF-GFP
[3] = CHO lysates, GFP immunoblot and GFP fluorescence; settings: glycan lost; control: wild-type TF-GFP
[4] = TF antigen ELISA, PBMC; settings: glycan lost; control: LPS-stimulated PBMC without tunicamycin
[5] = FX activation on intact PBMC; settings: glycan lost; control: LPS-stimulated PBMC without tunicamycin
[6] = FX activation in freeze-thaw HUVEC lysates; settings: glycan lost; control: wild-type TF-GFP
[7] = confocal microscopy, GFP and TF immunostaining, HUVEC; settings: glycan lost; control: wild-type TF-GFP
[8] = FX activation assay, HUVEC surface; settings: glycan lost; control: wild-type TF-GFP

Protein	localisation_or_trafficking [1]	enzymatic_activity [2]	expression_or_secretion [3]	expression_or_secretion [4]	enzymatic_activity [5]	enzymatic_activity [6]	localisation_or_trafficking [7]	enzymatic_activity [8]
B1	no change	no change	no change					
B2				no change	no change			
B3	no change	no change	no change					
B4	no change	no change	no change					
B5	no change	no change	no change					
B6						no change	no change	no change
